Experiment [1] addresses T1, recombinant human PCSK9 protein, His-tagged (Immunogen A, hPCSK9-His) (human, UniProt Q8NBP7 31-692, limits assumed, biotin-labelled in the ELISA and blocking assays (Biotin labeling kit)).
T1 construct: also called human PCSK9-His; recombinant hPCSK9-His; not shown: His tag
The experiment is described as follows: ELISA, biotin-hPCSK9-His on streptavidin plate; antibody 0.67 nM. Background: ELISA stands for enzyme-linked immunosorbent assay.

The target of experiment [2] is T1, recombinant human PCSK9 protein, …. The experiment can be described thus: ELISA, biotin-hPCSK9-His on streptavidin plate; antibody 6.67 nM.
Method: (§1) The next day, the plates were washed twice with wash buffer [0.01% (v/v) Tween 20], then blocked with blocking buffer [0.01% (v/v) 0.1% BSA (w/w) Tween 20] at room temperature for 2 hours. […] Unbound PCSK9 proteins were removed by washing the plate three times with wash buffer [0.01% (v/v) Tween 20]. […] The plates were washed twice with wash buffer [0.01% (v/v) Tween 20], and 200 uL HRP-conjugated secondary antibody (Sigma) was added to each well and incubated for 2 hours at 37° C. After the plates were washed three times with wash buffer, 100 ul TMB substrate were added to each well and incubated for 30 minutes at room temperature. 100 ul stop solution (0.1N HCl) were added to each well to stop the reaction.
Experiment [3] addresses T2, recombinant cyno monkey PCSK9 protein (cyno monkey, UniProt A8T666 31-692 (rhesus entry), limits assumed, biotin-labelled in the ELISA (Biotin labeling kit)).
T2 construct: also called cyno PCSK9; Cyno Monkey PCSK9-His
The experiment can be described thus: ELISA, biotin-cyno PCSK9 on streptavidin plate; antibody 0.67 nM.
Method: as §1

For experiment [4], the target named is T2, recombinant cyno monkey PCSK9 protein. The experiment is described as follows: ELISA, biotin-cyno PCSK9 on streptavidin plate; antibody 6.67 nM.
Method: as §1
Experiment [5] deals with T1, recombinant human PCSK9 protein, …. The experiment is described as follows: ELISA, biotin-hPCSK9-His on streptavidin plate; antibody 0.067 nM.
Method: as §1
For experiment [6] the target is unchanged. The experiment can be described thus: ELISA, biotin-hPCSK9-His on streptavidin plate; antibody 66.67 nM.
Method: as §1
The target in experiment [7] is T2, recombinant cyno monkey PCSK9 protein. The experiment is described as follows: ELISA, biotin-cyno PCSK9 on streptavidin plate; antibody 0.067 nM.
Method: as §1
Experiment [8] shares this target. The experiment is described as follows: ELISA, biotin-cyno PCSK9 on streptavidin plate; antibody 66.67 nM.
Method: as §1
Experiment [9] has as its target T1, recombinant human PCSK9 protein, …. The experiment is described as follows: ELISA, biotin-hPCSK9-His on streptavidin plate; antibody 0.0067 nM.
Experiment [10] addresses T2, recombinant cyno monkey PCSK9 protein. The experiment is described as follows: ELISA, biotin-cyno PCSK9 on streptavidin plate; antibody 0.0067 nM.
Method: as §1
The target in experiment [11] is T1, recombinant human PCSK9 protein, …. The experiment is described as follows: ELISA, biotin-hPCSK9-His on streptavidin plate; antibody 0.00067 nM.
Method: as §1
Experiment [12] has as its target T2, recombinant cyno monkey PCSK9 protein. The experiment can be described thus: ELISA, biotin-cyno PCSK9 on streptavidin plate; antibody 0.00067 nM.
Method: as §1
Experiment [13] has as its target T1, recombinant human PCSK9 protein, …. The experiment can be described thus: ELISA, biotin-hPCSK9-His on streptavidin plate; antibody 0.000067 nM.
Method: as §1
In experiment [14] the target is T2, recombinant cyno monkey PCSK9 protein. The experiment can be described thus: ELISA, biotin-cyno PCSK9 on streptavidin plate; antibody 0.000067 nM.
Method: as §1
Experiment [15] concerns the target T1, recombinant human PCSK9 protein, …. The experiment can be described thus: ELISA, biotin-hPCSK9-His on streptavidin plate; antibody 0 nM (blank).
Method: as §1
Experiment [16] addresses T2, recombinant cyno monkey PCSK9 protein. The experiment can be described thus: ELISA, biotin-cyno PCSK9 on streptavidin plate; antibody 0 nM (blank).
Method: as §1
In experiment [17] the target is T1, recombinant human PCSK9 protein, …. The experiment is described as follows: blocking ELISA, biotin-hPCSK9-His on coated LDLR ECD-His; antibody 8 nM.
Method: (§2) Purified LDLR^ECD-His was diluted with PBS to a final concentration of 1.0 ug/ml, and 100 uL of diluted LDLR^ECD-His were added to each well of 96-well plate that was then sealed with plastic film and incubated at 4° C. overnight. The plate was washed twice with wash buffer [PBS+0.01% (v/v) Tween 20] and incubated with blocking buffer [PBS+0.01% (v/v) BSA+1% Tween20 (w/w)] at room temperature for 2 hours. […] The plate was washed three times with wash buffer [0.01% (v/v) Tween 20]. 100 uL HRP-conjugated streptavidin (Sigma) were then added to each well and incubated at 37° C. for 1 hour. The plate was then washed three times with wash buffer, and 100 uL TMB substrate were added to each well. After 15 minutes of incubation at room temperature, the reaction was stopped by adding 50 uL stop solution (0.1N HCl).
Experiment [18] shares this target. The experiment is described as follows: blocking ELISA, biotin-hPCSK9-His on coated LDLR ECD-His; antibody 40 nM.
Method: as §2
For experiment [19] the target is unchanged. The experiment is described as follows: blocking ELISA, biotin-hPCSK9-His on coated LDLR ECD-His; antibody 1.6 nM.
Method: as §2
Experiment [20] has the same target. The experiment can be described thus: blocking ELISA, biotin-hPCSK9-His on coated LDLR ECD-His; antibody 200 nM.
Method: as §2
The target is the same in experiment [21]. The experiment can be described thus: blocking ELISA, biotin-hPCSK9-His on coated LDLR ECD-His; antibody 0.01 nM.
Method: as §2
The target is the same in experiment [22]. The experiment can be described thus: blocking ELISA, biotin-hPCSK9-His on coated LDLR ECD-His; antibody 0.06 nM.
Experiment [23] shares this target. The experiment can be described thus: blocking ELISA, biotin-hPCSK9-His on coated LDLR ECD-His; antibody 0.32 nM.
Method: as §2

The text below walks through data of US20180355059A1 (PHARMAEXPLORER, published 2018).

T2 sequence (A8T666 31-692 limits assumed): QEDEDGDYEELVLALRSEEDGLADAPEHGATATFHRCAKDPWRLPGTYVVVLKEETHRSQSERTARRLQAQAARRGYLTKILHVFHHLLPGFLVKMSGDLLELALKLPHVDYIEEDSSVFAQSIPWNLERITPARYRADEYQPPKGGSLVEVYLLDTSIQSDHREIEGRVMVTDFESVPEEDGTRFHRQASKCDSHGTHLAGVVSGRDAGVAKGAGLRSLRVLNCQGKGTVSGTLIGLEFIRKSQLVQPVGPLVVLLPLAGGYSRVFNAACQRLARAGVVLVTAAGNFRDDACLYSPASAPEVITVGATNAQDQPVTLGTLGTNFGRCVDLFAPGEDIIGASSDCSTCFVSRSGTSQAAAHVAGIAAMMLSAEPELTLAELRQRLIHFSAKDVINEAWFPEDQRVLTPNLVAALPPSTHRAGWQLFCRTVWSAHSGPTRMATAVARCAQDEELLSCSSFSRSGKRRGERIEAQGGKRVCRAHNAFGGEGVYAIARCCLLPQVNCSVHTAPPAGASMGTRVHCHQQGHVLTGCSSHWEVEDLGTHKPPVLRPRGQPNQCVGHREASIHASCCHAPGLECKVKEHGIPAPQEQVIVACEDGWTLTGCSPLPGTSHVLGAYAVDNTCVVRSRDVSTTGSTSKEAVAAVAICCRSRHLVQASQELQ

B1: 76A1B11, chimeric anti-PCSK9 mAb purified from hybridoma (antibody, V domains shown)
VH: QVQLVESGGGVVQPGRSLRLSCAATGFTFSIYGMHWVRQAPGKGLEWVAVIWYDGSNKYYADSVKGRFIISRDNSKNTLYLQMNSLRVEDTAVYYCVSDYFGSGNSYYYYGMDVWGQGTTVTVSS
VL: DIQMTQSPSSLSASVGDRVTITCRASQVISNYLAWYQQKPGKVPKLLIYTASTLQSGVPSRFSGSGSGADFTLTISSLQPEDVATYYCQKYNSAPYTFGQGTKLEIK
notes: From Harbour H2L2 mice: human variable regions, rat constant regions
In the case of B1, the OD450 nm in experiment [1] was 2.66 OD450 nm; in experiment [2] it was 2.85 OD450 nm; in experiment [3], 2.5 OD450 nm; in experiment [4], 2.82 OD450 nm; in experiment [5], 0.86 OD450 nm; in experiment [6], 2.85 OD450 nm. The OD450 nm in experiment [7] worked out at 0.81 OD450 nm; in experiment [8] it was 2.88 OD450 nm; in [9], 0.27 OD450 nm; in experiment [10], 0.26 OD450 nm; in [11], 0.21 OD450 nm; in experiment [12], 0.23 OD450 nm. For the same molecule, the OD450 nm in experiment [13] was found to be 0.2 OD450 nm; in [14] it was 0.21 OD450 nm; in experiment [15], 0.18 OD450 nm; in experiment [16] it was 0.19 OD450 nm. For the same molecule, the “OD450 nm (PCSK9 bound to LDLR)” value in experiment [17] was 0.7 OD450 nm; in experiment [18], 0.59 OD450 nm; in [19] it was 0.96 OD450 nm; in experiment [20], 0.55 OD450 nm; in [21] it was 1.29 OD450 nm; in experiment [22] it was 1.18 OD450 nm. In addition, the “OD450 nm (PCSK9 bound to LDLR)” value in [23] came out at 1.19 OD450 nm.

B2: 74C10A8, chimeric anti-PCSK9 mAb purified from hybridoma (antibody, V domains shown)
VH: QVQLQESGPGLVKPSETLSLTCSVSGGSINTYYWSWIRQPPGKGLEWIGYIYYSGSTNYNPSLKSRVTISVDTSKNQFSLKLTSVTAADTAVYYCARERFTMVRGVMMDYYYYGMDVWGQGTTVTVSS
VL: DIQLTQSPSFLSASVGDRVTITCRASQGISSYLAWYQQKPGKAPKLLIYAASTLQSGVPSRFSGSGSGTEFTLTISSLQPEDFATYYCQQLNSYPRTFGQGTKVEIK
notes: as for B1
B2: the OD450 nm worked out at 2.89 OD450 nm in experiment [1]; 2.99 OD450 nm in [2]; 2.53 OD450 nm in experiment [3]; 2.86 OD450 nm in experiment [4]; 2.98 OD450 nm in [6]; 0.76 OD450 nm in experiment [7]. In addition, the OD450 nm in experiment [8] is 2.89 OD450 nm; in experiment [9] it was 0.3 OD450 nm; in experiment [10] it was 0.27 OD450 nm; in experiment [11], 0.17 OD450 nm; in experiment [12] it was 0.34 OD450 nm; in experiment [13], 0.19 OD450 nm. The OD450 nm in [14] stood at 0.18 OD450 nm; in experiment [15], 0.22 OD450 nm; in [16] it was 0.21 OD450 nm. In addition, the “OD450 nm (PCSK9 bound to LDLR)” value in experiment [17] came to 0.78 OD450 nm; in [18], 0.68 OD450 nm; in [19], 0.97 OD450 nm; in experiment [20], 0.55 OD450 nm; in experiment [21] it was 1.34 OD450 nm; in experiment [22], 1.3 OD450 nm. The “OD450 nm (PCSK9 bound to LDLR)” value in experiment [23] is 1.2 OD450 nm.

B3: 139G1C5, chimeric anti-PCSK9 mAb purified from hybridoma (antibody, V domains shown)
VH: QVQLQESGPGLVKPSGTLSLTCAVSGGSISRNNWWSWVRQPPGKGLEWIGEIYHSGSTNYNPSLKSRVTISVDKSKNQFSLKLSSVTAADTAVYYCARDLLGIGLDYWGQGTLVTVSS
VL: EFVLTQSPATLSLSPGERAILSCRASQSFSSYIAWYQQKPGQAPRLLIYDASNRATGIPARFSGSGSGTDFTLTISSLEPEDFAVYYCQQHSNWMYTFGQGTKLEIK
notes: as for B1
Turning to B3, the OD450 nm in experiment [1] came to 2.87 OD450 nm; in experiment [2], 2.94 OD450 nm; in experiment [3], 2.67 OD450 nm; in [4], 2.88 OD450 nm; in experiment [5], 1.55 OD450 nm; in experiment [6], 2.93 OD450 nm. The OD450 nm in [7] was 1 OD450 nm; in experiment [8], 2.9 OD450 nm; in [9], 0.36 OD450 nm; in experiment [10] it was 0.27 OD450 nm; in experiment [11], 0.21 OD450 nm; in experiment [12], 0.26 OD450 nm. The OD450 nm in experiment [13] amounted to 0.19 OD450 nm; in [14] it was 0.23 OD450 nm; in experiment [15] it was 0.22 OD450 nm; in experiment [16], 0.2 OD450 nm. Moreover, the “OD450 nm (PCSK9 bound to LDLR)” value came to 0.61 OD450 nm in experiment [17]; 0.67 OD450 nm in experiment [18]; 0.89 OD450 nm in experiment [19]; 0.63 OD450 nm in experiment [20]; 1.06 OD450 nm in experiment [21]; 1.13 OD450 nm in experiment [22]. The “OD450 nm (PCSK9 bound to LDLR)” value in experiment [23] turned out to be 1.11 OD450 nm.
